According to US20210137940A1 (AstraZeneca / MedImmune, published 2021):

Target: Prostate-Specific Membrane Antigen (PSMA), as expressed on LNCaP cells (human, UniProt Q04609 1-750)
Assay: cell-based or functional assay

Prostate-Specific Membrane Antigen (PSMA), as expressed on LNCaP cells, sequence (Q04609 whole entry): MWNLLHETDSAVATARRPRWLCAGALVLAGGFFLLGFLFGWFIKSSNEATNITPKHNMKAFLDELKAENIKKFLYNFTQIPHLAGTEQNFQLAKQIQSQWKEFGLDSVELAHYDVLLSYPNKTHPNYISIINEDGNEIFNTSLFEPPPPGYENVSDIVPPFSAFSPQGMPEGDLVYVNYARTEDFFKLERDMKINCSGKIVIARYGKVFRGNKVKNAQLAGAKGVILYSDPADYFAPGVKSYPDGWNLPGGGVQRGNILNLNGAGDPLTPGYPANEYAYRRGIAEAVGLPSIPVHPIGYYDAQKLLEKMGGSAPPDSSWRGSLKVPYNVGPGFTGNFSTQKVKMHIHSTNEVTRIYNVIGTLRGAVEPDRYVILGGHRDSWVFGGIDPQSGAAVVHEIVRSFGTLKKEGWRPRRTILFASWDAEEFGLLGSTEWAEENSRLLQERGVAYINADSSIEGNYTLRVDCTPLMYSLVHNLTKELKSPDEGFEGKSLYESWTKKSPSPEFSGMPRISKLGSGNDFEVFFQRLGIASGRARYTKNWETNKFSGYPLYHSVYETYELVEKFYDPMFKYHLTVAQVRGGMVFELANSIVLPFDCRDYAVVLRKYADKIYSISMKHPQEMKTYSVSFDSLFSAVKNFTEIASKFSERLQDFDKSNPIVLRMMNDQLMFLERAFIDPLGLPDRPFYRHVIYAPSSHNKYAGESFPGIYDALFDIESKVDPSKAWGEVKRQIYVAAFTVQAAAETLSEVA

Binder | EC50 (µg/mL), in vitro cytotoxicity on LNCaP cells (Alamar Blue cell survival, 4-day incubation)
HAKA-A (ADC of J415RHA+J415RKA anti-PSMA antibody conjugated to drug linker A) (antibody, V domains shown, PBD drug linker A conjugated to reduced cysteine thiols (positions not stated); measured DAR 1.17 per antibody) VH: EVQLVESGGGLVQPGGSLKLSCAASGFTFSNYWMNWVRQASGKGLEWVGEIRSQSNNFATHYAESVKGRFTISRDDSKNTAYLQMNSLKTEDTAVYYCTRRWNNFWGQGTTVTVSS VL: DIQMTQSPSSVSASVGDRVTITCKASENVGTYVSWYQQKPGTAPKLLIYGASNRFTGVPSRFSGSGSATDFTLTINNLQPEDFATYYCGQSYTFPYTFGQGTKVEIK | 0.00186 µg/mL
HAKB-A (ADC of J415RHA+J415RKB anti-PSMA antibody conjugated to drug linker A) (antibody, V domains shown, PBD drug linker A conjugated to reduced cysteine thiols (positions not stated); measured DAR 1.86 per antibody) VH: EVQLVESGGGLVQPGGSLKLSCAASGFTFSNYWMNWVRQASGKGLEWVGEIRSQSNNFATHYAESVKGRFTISRDDSKNTAYLQMNSLKTEDTAVYYCTRRWNNFWGQGTTVTVSS VL: DIQMTQSPSSVSASVGDRVTITCKASENVGTYVSWYQQKPGTAPKLLIYGASNRFTGVPSRFSGSGSATDFTLTINNLQPEDFATYYCGQSYTFPYTFGQGTKVEIK | 0.00163 µg/mL
